Experimental data reported in patent publication US12624123B2, “Compositions and methods for reducing off-target toxicity of antibody drug conjugates” (The Research Foundation for The State University of New York, priority 2019, dated 2026).
Where “and” joins values, the source holds several entries; their conditions need not be identical. Identical values can stand only once. Entries after “also recorded” stand apart in the source; their conditions may differ. Like-named read-outs stand apart in the source and are kept apart here.

Legend:
[1] = system: Lovo cells; assay: MTT cytotoxicity of DM1 and DM4 on Lovo cells; format: cell-based; settings: for IC50: DM1 alone, read-out: IC50 of DM1
Description: Log-phase Lovo or MOLM-14 cells were seeded in 96-well microtiter plates at a density of 5,000 cells/well, in 100 μL or 70 μL of culture medium, respectively. […] MOLM-14 cells were re-suspended with treatment solutions, where 100 μL of cell-treatment suspension was aliquoted into wells of a 96-well plate for 24 h. Treatment solutions consisted of DM-4 with or without purified anti-drug sdAb. For MOLM-14 cells, 10 μL of MTT solution (5 mg/mL in pH 7.4 1× PBS) was added directly to wells following treatment incubation. For adherent cells, treatment media was aspirated from wells and cells were washed three times with 100 μL of fresh media. Following the final wash, 100 μL of complete media and 25 μL of MTT solution were added to each well. Cells were incubated for 4 h in order to allow cells to reduce MTT to formazan dye. Once MTT was reduced, 100 μL of 10% SDS prepared in 0.01 M HCl was added to each well and incubated overnight to solubilize the formazan crystals. Formazan dye was measured at 570 nm and normalized by cell debris at 690 nm.

[2] = system: SK-BR-3 cells; assay: MTT cytotoxicity assay in SK-BR-3 cells; format: cell-based
[3] = system: NCI-N87 cells; assay: Cell cytotoxicity with exatecan and trastuzumab deruxtecan, NCI-N87 cells; format: cell-based; settings: for IC50: free exatecan alone
Description: Cells were incubated with the drug mixture for 24 hours at 37° C., 5% CO2. After incubation drug containing cell culture media was aspirated and 250 μL of fresh RPMI was added, allowing cells to grow for another 4 days. Then cell culture media was aspirated and 125 μL of RPMI with a final concentration of 1 mg/ml MTT was added followed by a four-hour incubation. MTT crystals were dissolved in 0.01 M HCL/10% SDS overnight at 37° C. followed by absorbance reading at 570 nm (corrected to 640 nm).

[4] = system: MOLM-14 cells; assay: MTT cytotoxicity of calicheamicin on MOLM-14 cells; format: cell-based, human; settings: 24 h, 100 μM peptide or sdAb
Description: (§1) Log-phase MOLM-14, Ramos (RA 1), HT-29, LS174T, or NCI-N87 cells were seeded in 96-well microtiter plates at a density of 20,000 cells/well, 20,000 cells/well, 5,000 cells/well, 5,000 cells/well, and 10,000 cells/well, respectively, in 100 μL of culture medium. HT-29, LS174T, and NCI-N87 cells were allowed to adhere for 24 h before cell culture media was aspirated and replaced with 100 μL of fresh media containing a range of treatment for, 48 (LS174T), 96 (NCI-N87), or 120 (HT-29) h. MOLM-14 and Ramos cells were re-suspended with treatment solutions, where 100 μL of cell-treatment suspension was aliquoted into wells of a 96-well plate for 24 h. Treatment solutions consisted of calicheamicin, MMAE, topotecan, or SN38 with or without immunized animal plasma, purified anti-drug antibody, or antibody-drug conjugate (ADC) with or without plasma or anti-drug antibody. For MOLM-14 and Ramos cells, 25 μL of MTT solution (5 mg/mL in pH 7.4 1× PBS) was added directly to wells following treatment incubation. For adherent cells, treatment media was aspirated from wells and cells were washed three times with 100 μL of fresh media. Following the final wash, 100 μL of complete media and 25 μL of MTT solution were added to each well. Cells were incubated for 4 h in order to allow cells to reduce MTT to formazan dye. Once MTT was reduced, 100 μL of 10% SDS prepared in 0.01 M HCl was added to each well and incubated overnight to solubilize the formazan crystals. Formazan dye was measured at 570 nm and normalized by cell debris at 690 nm.
(§2) Fresh media containing a range of treatment were pre-incubated with or without 100 μM purified sdAb at room temperature for 30 minutes. Log-phase MOLM-14 cells were seeded in 96-well microtiter plates at a density of 20,000 cells/well, and were re-suspended with treatment solutions, where 100 μL of cell-treatment suspension was aliquoted into wells of a 96-well plate for 24 h. 25 μL of MTT solution (5 mg/mL in pH 7.4 1× PBS) was added directly to wells following treatment incubation. […] Formazan dye was measured at 570 nm and normalized by cell debris at 690 nm.

[5] = system: Ramos cells; assay: MTT cytotoxicity of calicheamicin on Ramos cells; format: cell-based; settings: 24 h, calicheamicin alone
Description: as §1, §2

[6] = system: SK-BR-3 cells; assay: MTT cytotoxicity assay in SK-BR-3 cells; format: cell-based; settings: 24 h exposure, 10 μM sdAb
Description: Positive clone sdAbs' DNA in pComb3XSS plasmid was isolated and transferred into pET-22b expression vector in SHuffle cells for expression. SK-BR-3 cells were used to test the anti-DM4 sdAbs effect on DM4 cytotoxicity. Briefly, 2,500 cells/well were seeded into a 96-well plate and allowed to adhere for 24 h before cell culture media was aspirated and replaced with 100 μL of fresh media solution containing with or without 10 μM of anti-DM4 sdAb and a range of DM4 concentration for another 24 h exposure period. The cells were then washed 2 times before replacing with fresh media and allowed to grow for additional 72 h.

[7] = Competitive ELISA with free DM4; format: binding; settings: for Kd: free DM4, read-out: Estimated KD; for IC50: read-out: Estimated binding affinity IC50 to free DM4
Description: To determine the binding affinity of the anti-DM4 sdAbs to DM4-conjugates and free DM4, indirect ELISA and competitive ELISA were employed. Briefly, ELISA plate were coated overnight with 100 μL of neutravidin at different concentration ranging from 1 μg/mL to 10 μg/mL. After blocking with 200 μL of 2% skimmed milk-PBST for 1 h, 100 μL of 1 μM biotin-DM4 solution was added into each well and incubated for 30 min, then 100 μL of purified anti-DM4 sdAb solution at concentration ranging from 0.1 nM to 1 μM was added and incubated for 1 h. Bound sdAbs were detected with HRP conjugated anti-His antibody and TMB substrate. After the linear range of binding was determined via the indirect ELISA, a concentration of anti-DM4 sdAb near the IC50 of binding was selected to proceed with competitive ELISA. For the competitive ELISA, anti-DM4 sdAb concentration was held constant as determined from the indirect ELISA and incubated with increasing concentration of DM4 ranging from 0.1 nM to 1 μM.

[8] = SPR dissociation screening on DM1-Biotin chip; format: binding; settings: 20 min dissociation phase
Description: Preliminary screening of DM1/4 binders were performed using a neutravidin SPR chip with DM1-Biotin on the left channel. Phagemid purified sdAbs were flowed over the SPR chip for 2 minutes at a flow rate of 25 ul/min. After binding, sdAb was dissociated for 20 minutes. Observed sensorgrams were fit to an individual dissociation rate constant for each construct. Equilibrium and kinetic binding of 3A2 was assessed using a CM5 SPR chip with TDM1 immobilized on the left channel. […] Rate constants for 3A2-TDM1 association and dissociation were obtained through fitting of the observed sensorgrams for the 1.25, 2.5, 5, 7.5 and 10 nM injections to a 1:1 Langmuir binding model.

In the case of `COc1cc2cc(c1Cl)N(C)C(=O)C[C@H](OC(=O)[C@H](C)N(C)C(=O)CCS)[C@]1(C)O[C@H]1[C@H](C)[C@@H]1C[C@@](O)(NC(=O)O1)[C@H](OC)/C=C/C=C(\C)C2` [DM1], the IC50 ([1]; 6 h exposure) is reported as 30.5 nM and 22.1 nM, the IC50 ([1]; 24 h exposure) is reported as 3.07 nM and 2.12 nM and the IC50 ([2]; 24 h exposure, DM1 alone, read-out: IC50 of DM1) is reported as 4.43 nM.

Molecule `CC[C@@]1(O)C(=O)OCc2c1cc1n(c2=O)Cc2c-1nc1cc(F)c(C)c3c1c2[C@@H](N)CC3` [exatecan, reference compound] has an IC50 ([3]; Homo sapiens, NCI-N87, NCI-N87 cells) of 1.5 nM and an IC50 ([3]; NCI-N87 cells) of 2.1 nM.

Molecule T-DM1 [reference compound] has an IC50 ([2]; 24 h, without DMFH1, read-out: IC50 of T-DM1) of 0.0128 nM.

In the case of “anti-calicheamicin peptide HSWHWPSWWAGGGGGS (SEQ ID NO:1) [C2]”, the “fold change of calicheamicin IC50” value [4] is reported as 5.69 fold.

With “anti-calicheamicin peptide SWWFPQWMAQYPGGGS (SEQ ID NO:2) [C9]” the “fold change of calicheamicin IC50” value [4] was 3.56 fold.

For calicheamicin, the IC50 [5] was 2.5 nM and 2.98 nM and the IC50 ([5]; listed as Calicheamicin) was 2.5 ± 0.224 nM.

B1: 8C2 Fab: Fab of 8C2 by papain digestion; heavy SEQ ID NO:4, light SEQ ID NO:5 (antibody)
heavy: MKCSWVIFFLMAVVTGVNSEEVQLQQSGAELVKPGASVKLSCTASGFNIKDTYIHWVKQRPEQGLEWIGMIDLANDNTKYDPKFQGKATIITDTSSNKAYLQVSSLTSEDTAVYYCATWGAIITLGGWGQGTLVTVSAAKTTPPSVYPLAPGSAAQTNSMVTLGCLVKGYFPEPVTVTWNSGSLSSGVHTFPAVLQSDLYTLSSSVTVPSSTWPSETVTCNVAN
light: MSVLTQVLALLLLWLTGARCDIQMTQSPASLSASVGETVTITCRASGNIHNSLAWYQQIKGRSPQLLVYNAKTLADGVPSRFSGSGSGTQYSLKINSLHPEDFGSYYCQHFWSTPFTFGSGTKLEIKRADAAPTVSIFPPSSEQLTSGGASVVCFLNNFYPKDINVKWKIDGSEERQNGVLNSWTDQDSKDSTYSMSSTLTLTKD
modifications: 8C2 Fab heavy chain; 8C2 Fab light chain
With B1 the “effect on trastuzumab deruxtecan cytotoxicity” value ([3]; NCI-N87 cells, ADC with 8C2 mAb or Fab) was “did not prevent cell death; also recorded: does not significantly alter”.

B2: DF3A4 (protein)
VHH: QVQLQESGGGLVQPGGSLRLSCAASGSIFGISYMGWYRQAPGKQREPVALITSGGSTYYADSVKGRVTISRDNAKKTVYLQMNSLRPEDTSTYYCAAGFYRSDSPNRYDYWGQGTQVTVSS
modifications: DF3A4
In the case of B2, the “fold shift of DM4 IC50” value ([1]; 6 h exposure) is reported as 5.88 fold and the “fold shift of DM1 IC50” value ([1]; 6 h exposure, 10 μM sdAb) is reported as 14.8 fold.

B3: DMFB8 (protein)
VHH: QVQLQESGGGLVQPGGSLRLSCAASGSIFGISYMGWYRQAPGKQREPVAMITSGGSTYYADSVKGRVTISRDNAKKTVYLQMYSLRPEDTSTYYCAAGYYRSDSPNRYDYWGQGTQVTVSS
modifications: DMFB8
In the case of B3, the “Fold shifted (DM4 IC50)” value [6] is reported as 140 fold and 140.2 fold.

B4: DMFF2 (protein)
VHH: QVQLQESGGGLVQPGGSLRLSCAASGSIFGISYMGWYRQAPGKQREPVALITSGGSTYYVDSVKGRVTISRDNAKKTVYLQMNSLRPEDTSTYYCAAGYYRSDSPNRYDYWGQGTQVTVSS
modifications: DMFF2
In the case of B4, the “Fold shifted (DM4 IC50)” value [6] is reported as 95 fold and 93.65 fold, the Kd [7] is reported as 57 nM and 56.6 nM and the IC50 [7] is reported as 57 nM.

B5: DF4B12 (protein)
VHH: EVQLVESGGGLVQPGGSLRLSCAASGSIFGISYMGWYRQAPGKQREPVALITSGGDTAYGDSVKGRFTISRDNAKNTVYLQMNSLTPEDTSTFYCAAGFYRSDSPNRYDYWGQGTQVTVSS
modifications: DF4B12
With B5 the “fold shift of DM4 IC50” value ([1]; 6 h exposure) was 15.5 fold, the “fold shift of DM1 IC50” value ([1]; 6 h exposure, 10 μM sdAb) was 53 fold and the “fold shift of DM4 IC50” value ([1]; 24 h exposure, 10 μM sdAb) was 8.66 fold and 9.4 fold.

B6: DMOF8 (protein)
VHH: QVQLQESGGGLVQPGGSLRLSCAASGSIFGISYMGWYRQAPGKQREPVAMITSSGSTYYADSVRGRVTISRANAKKTVYLQMNSLRPEDTSTYYCAAGYYRSDSPNRYDYWGQGTQVTVSS
modifications: DMOF8
In the case of B6, the “Fold shifted (DM4 IC50)” value [6] is reported as 104 fold and 104.1 fold, the Kd [7] is reported as 26 nM and 26.2 nM and the IC50 [7] is reported as 26 nM.

B7: DMOH9: affinity matured Anti-DM1/DM4 sdAb, SEQ ID NO:32 (protein)
VHH: QVQLQESGGGLVQPGGSLRLSCAASGSIFGITYMGWYRQAPGKQREPVAMITSGGSTYYADSVKGRVTISRDNAKKTVYLQMNSLRPEDTSTYYCAAGYYRSDSPNRYDYWGQGTQVTVSS
modifications: DMOH9
With B7 the “Fold shifted (DM4 IC50)” value [6] was 210 fold and 209.5 fold, the Kd [7] was 20 nM and 19.9 nM and the IC50 [7] was 20 nM.

B8: DMFH2 (protein)
VHH: QVQLQESGGGLVQPGGSLRLSCAASGSTFGISYMGWYRQAPGKQREPVAMITSGGSTYYVDSVKGRVTISRDNAKKTVYLQMNSLRPEDTSTYYCAAGFYRSDSPNRYDYWGQGTQVTVSS
modifications: DMFH2
With B8 the “Fold shifted (DM4 IC50)” value [6] was 150 fold and 149.4 fold, the Kd [7] was 25 nM and 25.2 nM and the IC50 [7] was 25 nM.

B9: DT3B3 (protein)
VHH: EVQLVESGGGLVQAGGSLRLSCALSGGTLRSYTMGWIRQAPGKEREFVAGNRWSGGRTYYADSVKGRFTISGDNAENTVYLQMNSLKPEDTAVYYCTADVTEYGEDSSAYWGRGTQVTVSS
modifications: DT3B3
With B9 the dissociation kinetics [8] was “longest dissociation rates; also recorded: longer dissociation rates”.
